Biological target: T1, Cyp33 RRM domain (1–83) (UniProt Q9UNP9 1-83)
T1 sequence (looked up): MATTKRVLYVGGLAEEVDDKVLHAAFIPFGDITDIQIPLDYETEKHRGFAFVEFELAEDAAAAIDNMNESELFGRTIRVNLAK
Assay: NMR titration

B1: KMT2A PHD3 finger (1565–1627) (domain or fragment, UniProt Q03164 1565-1627, looked up)
chain: KGNFCPLCDKCYDDDDYESKMMQCGKCDRWVHSKCENLSDEMYEILSNLPESVAYTCVNCTER
- binding result: binds

From publication PMC3925188 (Biochimica et biophysica acta, 2013)
